The values that follow come from US20240091360A1 (LENTIGEN TECHNOLOGY, published 2024).

The target in experiment [1] is T1, ROR1-Fc peptide (R&D System) (UniProt Q01973 30-403).
T1 construct: Bought detection reagent (R&D Systems), detected with anti Fc-AF647; not shown: Fc part of the bought reagent, not described
Kind of experiment: flow cytometry; transduced primary human T cells stained with ROR1-Fc, then anti-Fc Alexa Flour 647. From the text:
Half million CAR T cells were washed in cold AutoMACS buffer supplemented with 0.5% bovine serum albumin (Miltenyi Biotec, Bergisch Gladbach, Germany) and stained with CAR detection reagents. For ROR CAR, cells were stained with ROR1-Fc peptide (R&D System, Minneapolis, MN), followed by anti Fc-AF647 conjugate(Jackson ImmunoResearch, West Grove, PA). For MSLN CAR, cells were stained with MSLN-His (R&D System, Minneapolis, MN) […] anti-His-APC (Miltenyi Biotec). The 7-Aminoactinomycin D staining (7-AAD, BD Biosciences, San Jose, CA) was added to exclude dead cells. CD4 antibody labeled with VioBlue fluorochrome or CD8 antibody labeled with VioGreen fluorochrome was used to separate CD4 and CD8 population. Non-transduced cells (UTD) were used as a negative control. Cells were washed twice, resuspended in 200 μl running buffer, and acquired by flow cytometry. Flow cytometric analysis was performed on a MACSQuant® 10 Analyzer (Miltenyi Biotec), and data plots were generated using FlowJo software (Ashland, OR).
ROR1 and MSLN mono CARs and tandem CARs without mIL7 were included as control (FIG. 2A). CAR sequences were further incorporated into a third-generation lentiviral vectors and transduced into human primary T cells at MOI 40, to generate the ROR1 and/or MSLN CAR T cells under the control of the mammalian EF-1α promoter. Un-transduced T cells derived from same donor (UTD) were used as negative control. Surface expression of CARs with ROR1 binder on transduced T cells was measured by flow cytometry using ROR1-Fc, followed by staining with anti-Fc Alexa Flour 647. CARs with MSLN scFv surface expression was detected by MSLN-His followed by anti-His APC. […] Quantified CAR positive percentage and mean fluorescence intensity (MFI) of ROR1 binders (FIG. 2B, 2D) and MSLN binders (FIG. 2C, 2E) were plotted as bar figure.
On the technique in general: Flow cytometry measures light scatter and fluorescence of single cells or particles in a stream.

The target in experiment [2] is T2, ROR1.Fc (Sino Biologicals) (UniProt Q01973 30-403).
T2 construct: not shown: Fc part of the bought reagent, not described
As to the kind of experiment: flow cytometry of transduced primary human T cells at day 8; ROR1.Fc and anti-human Fc.AF647 are the listed reagents. On the procedure:
Flow cytometric analysis was performed as previously described (12, 15, 16). All cell staining reagents for flow cytometry were from Miltenyi Biotec, unless otherwise noted. These include anti-ROR1.AF647, mouse IgG1 control. APC, anti-CD45.PE, anti-CD8. Viogreen, anti-CD3.VioBlue, anti-CD45. VioBright FITC, anti-CD45RA. APC-Vio770, anti-CD62L.PE, anti-PD1.PE-Vio770, Streptavidin. PE (Miltenyi Biotec). Cell viability solution (7-AAD), BD Pharm Lysing buffer were purchased from BD Biosciences. Anti-ROR1.AF647 was from R&D systems. ROR1.Fc was from Sino Biologicals. Anti-human Fc.AF647 was from Jackson ImmunoResearch. Countbright absolute counting beads were from ThermoFisher Scientific. Anti-TGFβRII. Biotin was from Biolegend. Stained cells were analyzed using the MACSQuant Analyzer 10 flow cytometer (Miltenyi Biotec).

The target of experiment [3] is T3, CD276-His (Acro biosystems) (UniProt Q5ZPR3-2 29-245, limits assumed).
T3 construct: Bought detection reagent, detected with anti-His PE
T3 sequence (looked up): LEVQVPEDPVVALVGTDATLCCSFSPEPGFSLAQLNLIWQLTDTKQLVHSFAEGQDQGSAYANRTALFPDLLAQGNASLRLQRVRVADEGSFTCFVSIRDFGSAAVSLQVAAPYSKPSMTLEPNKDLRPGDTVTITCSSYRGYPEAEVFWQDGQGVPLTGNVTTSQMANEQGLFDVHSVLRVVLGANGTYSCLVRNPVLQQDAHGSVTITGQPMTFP
As to the kind of experiment: flow cytometry; transduced primary human T cells co-stained with ROR1-Fc and CD276-His, then anti-Fc and anti-His conjugates. From the text:
Half million CAR T cells were washed in cold AutoMACS buffer supplemented with 0.5% bovine serum albumin (Miltenyi Biotec, Bergisch Gladbach, Germany) and stained with CAR detection reagents. For ROR1 CAR, cells were stained with ROR1-Fc peptide (R&D System, Minneapolis, MN), followed by anti Fc-AF647 conjugate(Jackson ImmunoResearch, West Grove, PA). For CD276 CAR or CCR, cells were stained with CD276-His (Acro biosystems, Newark, De), followed by anti-His PE (Miltenyi Biotech). The 7-Aminoactinomycin D staining (7-AAD, BD Biosciences, San Jose, CA) was added to exclude dead cells. CD4 antibody labeled with VioBlue was used to separate CD4 and CD8 population. Non-transduced cells (UTD) were used as a negative control. Cells were washed twice, resuspended in 200 μl running buffer, and acquired by flow cytometry. […]
CD276 specific targeting-scFvs were first evaluated in CAR context in vitro, ROR1 CAR was included as control. […] Surface expression of CD276 CARs with ROR1 binder on transduced T cells was measured by flow cytometry using CD276-His, followed by staining with anti-His PE. ROR1 CAR expression was determined as previously described. […] The target specific cytotoxicity of CD276 and/or ROR1 CARs was measured by luciferase based overnight killing assy. […]

The target in experiment [4] is T4, FolR1-Fc peptide (Acro Biosystems) (UniProt P15328 25-233).
T4 construct: Bought detection reagent, detected with anti Fc-AF647; not shown: Fc part of the bought reagent, not described
As to the kind of experiment: flow cytometry; transduced primary human T cells stained with FolR1-Fc, then anti-Fc Alexa Flour 647. From the text: 0.32E6 CAR-T cells were washed in cold AutoMACS buffer supplemented with 0.5% bovine serum albumin (Miltenyi Biotec, Bergisch Gladbach, Germany) and stained with CAR detection reagents. For ROR CAR, cells were stained with ROR1-Fc peptide (R&D Systems, Minneapolis, MN) and FolR1 CAR were stained with FolR1-Fc peptide (Acro Biosystems, Newark, DE) followed by anti Fc-AF647 conjugate (Jackson ImmunoResearch, West Grove, PA). The 7-Aminoactinomycin D staining (7-AAD, BD Biosciences, San Jose, CA) was added to exclude dead cells. CD4 antibody labeled with VioBlue fluorochrome was used to separate CD4 and CD8 population. Processed mouse bone marrow and spleen were stained with human CD3 VioBlue and human CD45 FITC (Miltenyi Biotec) to determine the presence of CAR-T. To assess for memory phenotype, cells were stained with CD62L PE and CD45RA APC-Vio700 (Miltenyi Biotec). Non-transduced cells (UTD) were used as a negative control. Cells were washed twice, resuspended in 200 μl running buffer, and acquired by flow cytometry. […]
To test CAR-T functionality in vitro, ROR1 or FolR1 mono CARs with MMP-2, MMP-9, HPSE or PH-20 as booster elements were characterized. […] Surface expression of CARs with ROR1 or FolR1 binder on transduced T cells was measured by flow cytometry using ROR1-Fc or FolR1-Fc respectively, followed by staining with anti-Fc Alexa Flour 647.

T1 sequence (Q01973 30-403): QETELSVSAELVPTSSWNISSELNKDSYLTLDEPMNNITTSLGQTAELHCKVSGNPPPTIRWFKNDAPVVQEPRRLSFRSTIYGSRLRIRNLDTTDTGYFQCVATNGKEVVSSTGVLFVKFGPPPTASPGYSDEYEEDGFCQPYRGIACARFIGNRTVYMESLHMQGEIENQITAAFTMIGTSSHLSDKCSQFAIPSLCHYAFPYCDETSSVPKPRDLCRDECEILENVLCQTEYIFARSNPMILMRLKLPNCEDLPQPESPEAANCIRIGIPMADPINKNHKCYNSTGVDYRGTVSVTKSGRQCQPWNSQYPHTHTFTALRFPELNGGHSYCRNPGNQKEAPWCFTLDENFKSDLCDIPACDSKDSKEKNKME
T2 sequence (Q01973 30-403): as above
T4 sequence (P15328 25-233): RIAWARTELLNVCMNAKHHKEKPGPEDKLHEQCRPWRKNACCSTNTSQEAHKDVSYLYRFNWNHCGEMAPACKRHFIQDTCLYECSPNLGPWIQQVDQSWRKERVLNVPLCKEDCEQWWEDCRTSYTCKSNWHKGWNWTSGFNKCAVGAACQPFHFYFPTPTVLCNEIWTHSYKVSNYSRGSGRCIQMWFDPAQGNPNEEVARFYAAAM

B1: CAR LTG2529 ROR1scFv9 IgG4 CD8 BBz (other)
chain: QAAQVQLQQSGAEVKKPGSSVKVSCKASGGTFSSYAISWVRQAPGQGLEWMGWINPNSGGTNYAQRFQGRVTMTRDTSISTAYMELSRLRSDDTAVYYCASYNDAFDIWGQGTLVTVSSGGGGSGGGGSGGGGSNFMLTQPHSVSESPGKTVTISCTRSSGSIASNYVQWYQQRPGSAPTIVIYEDDQRPSGVPDRFSGSIDTSSNSASLTISGLQSEDEADYYCQSYEPGNGVFGGGTKVTVLAAAESKYGPPCPPCPIYIWAPLAGTCGVLLLSLVITLYCKRGRKKLLYIFKQPFMRPVQTTQEEDGCSCRFPEEEEGGCELRVKFSRSADAPAYQQGQNQLYNELNLGRREEYDVLDKRRGRDPEMGGKPRRKNPQEGLYNELQKDKMAEAYSEIGMKGERRRGKGHDGLYQGLSTATKDTYDALHMQALPPR
notes: Chimeric antigen receptor on lentivirally transduced primary human T cells; The entry includes the N-terminal leader peptide; also called ROR1 CAR LTG2529; ROR1-LTG2529
For B1, the binding result is on record as “binds” in experiment [1], “binds” in experiment [2] and “no binding” in experiment [3].

B2: CAR D0233 MSLN M1-4S ROR1 scFv9 IgG4 CD8 BBz (other)
chain: EVQLVQSGGGLVQPGGSLRLSCAASGFTFDDYAMHWVRQAPGKGLEWVSGISWNSGSIGYADSVKGRFTISRDNAKNSLYLQMNSLRAEDTALYYCAKDLSSVAGPFNYWGQGTLVTVSSGGGGSGGGGSGGGGSSSELTQDPAVSVALGQTVRITCQGDSLRSYYASWYQQKPGQAPVLVIYGKNNRPSGIPDRFSGSSSGNTASLTITGAQAEDEADYYCNSRDSSGNHLVFGGGTQLTVLGGGGGSGGGGSGGGGSGGGGSGGGGSQAAQVQLQQSGAEVKKPGSSVKVSCKASGGTFSSYAISWVRQAPGQGLEWMGWINPNSGGTNYAQRFQGRVTMTRDTSISTAYMELSRLRSDDTAVYYCASYNDAFDIWGQGTLVTVSSGGGGSGGGGSGGGGSNFMLTQPHSVSESPGKTVTISCTRSSGSIASNYVQWYQQRPGSAPTIVIYEDDQRPSGVPDRFSGSIDTSSNSASLTISGLQSEDEADYYCQSYEPGNGVFGGGTKVTVLAAAESKYGPPCPPCPIYIWAPLAGTCGVLLLSLVITLYCKRGRKKLLYIFKQPFMRPVQTTQEEDGCSCRFPEEEEGGCELRVKFSRSADAPAYQQGQNQLYNELNLGRREEYDVLDKRRGRDPEMGGKPRRKNPQEGLYNELQKDKMAEAYSEIGMKGERRRGKGHDGLYQGLSTATKDTYDALHMQALPPR
notes: Tandem CAR on transduced primary human T cells; also called MSLN-ROR1 scFv9-IgG4 hinge-CD8TM-41BB-CD3ζ; tandem CAR D0233
Regarding B2, in experiment [1], the binding result is “binds”.

B3: CAR LTG2527 ROR1 IgG4 CD8 BBz (other)
chain: QEQLVESGGRLVTPGGSLTLSCKASGFDFSAYYMSWVRQAPGKGLEWIATIYPSSGKTYYATWVNGRFTISSDNAQNTVDLQMNSLTAADRATYFCARDSYADDGALFNIWGPGTLVTISSGGGGSGGGGSGGGGSELVLTQSPSVSAALGSPAKITCTLSSAHKTDTIDWYQQLQGEAPRYLMQVQSDGSYTKRPGVPDRFSGSSSGADRYLIIPSVQADDEADYYCGADYIGGYVFGGGTQLTVTGAAAESKYGPPCPPCPIYIWAPLAGTCGVLLLSLVITLYCKRGRKKLLYIFKQPFMRPVQTTQEEDGCSCRFPEEEEGGCELRVKFSRSADAPAYQQGQNQLYNELNLGRREEYDVLDKRRGRDPEMGGKPRRKNPQEGLYNELQKDKMAEAYSEIGMKGERRRGKGHDGLYQGLSTATKDTYDALHMQALPPR
notes: CAR on transduced primary human T cells; also called ROR1 R12 -IgG4 hinge-CD8TM-41BB-CD3ζ; R12-ROR1 LTG2527
Regarding B3, in experiment [2], the binding result is on record as “binds”.

B4: D0290 ROR1 scFv9-IgG4 hinge-CD8TM-41BB-CD3ζ (other)
chain: QAAQVQLQQSGAEVKKPGSSVKVSCKASGGTFSSYAISWVRQAPGQGLEWMGWINPNSGGTNYAQRFQGRVTMTRDTSISTAYMELSRLRSDDTAVYYCASYNDAFDIWGQGTLVTVSSGGGGSGGGGSGGGGSNFMLTQPHSVSESPGKTVTISCTRSSGSIASNYVQWYQQRPGSAPTIVIYEDDQRPSGVPDRFSGSIDTSSNSASLTISGLQSEDEADYYCQSYEPGNGVFGGGTKVTVL
notes: CAR on transduced primary human T cells; also called CAR D0290; mono ROR1 CAR; not shown: IgG4 hinge, CD8 TM, 4-1BB, CD3ζ
B4: the binding result in experiment [1] was “binds”.

B5: CAR D0351 Farle CD8 BBz (other)
chain: MEVQLVESGGGVVQPGRSLRLSCSASGFTFSGYGLSWVRQAPGKGLEWVAMISSGGSYTYYADSVKGRFAISRDNAKNTLFLQMDSLRPEDTGVYFCARHGDDPAWFAYWGQGTPVTVSSASTKGGGGGSGGGGSGGGGSDIQLTQSPSSLSASVGDRVTITCSVSSSISSNNLHWYQQKPGKAPKPWIYGTSNLASGVPSRFSGSGSGTDYTFTISSLQPEDIATYYCQQWSSYPYMYTFGQGTKVEIKRTAAATTTPAPRPPTPAPTIASQPLSLRPEACRPAAGGAVHTRGLDFACDIYIWAPLAGTCGVLLLSLVITLYCKRGRKKLLYIFKQPFMRPVQTTQEEDGCSCRFPEEEEGGCELRVKFSRSADAPAYQQGQNQLYNELNLGRREEYDVLDKRRGRDPEMGGKPRRKNPQEGLYNELQKDKMAEAYSEIGMKGERRRGKGHDGLYQGLSTATKDTYDALHMQALPPR
notes: FolR1 CAR (Farletuzumab scFv) on transduced primary human T cells, PGK promoter; also called Farle-CD8H&TM-41BB-CD3ζ; mono-FolR1 D0351
Regarding B5, the binding result in experiment [4] was “binds”.
